Test results reported in article PMC11083199, “Cytokine Receptor-like Factor 1 (CRLF1) and Its Role in Osteochondral Repair” (Cells, 2024).

Target: the molecule itself
Assay: non-reducing and reducing SDS gel electrophoresis with immunoblot; conditioned medium of BMSCs transduced with AAV-CRLF1; NuPAGE SDS sample buffer without and with reducing agent, 70 °C for 10 min, 10% bis-Tris gels; blotted with antibodies specific for CRLF1 or CLC

B1: Cytokine receptor-like factor 1 (CRLF1) (natural protein, human, UniProt O75462 38-422, looked up)
chain: AHTAVISPQDPTLLIGSSLLATCSVHGDPPGATAEGLYWTLNGRRLPPELSRVLNASTLALALANLNGSRQRSGDNLVCHARDGSILAGSCLYVGLPPEKPVNISCWSKNMKDLTCRWTPGAHGETFLHTNYSLKYKLRWYGQDNTCEEYHTVGPHSCHIPKDLALFTPYEIWVEATNRLGSARSDVLTLDILDVVTTDPPPDVHVSRVGGLEDQLSVRWVSPPALKDFLFQAKYQIRYRVEDSVDWKVVDDVSNQTSCRLAGLKPGTVYFVQVRCNPFGIYGSKKAGIWSEWSHPTAASTPRSERPGPGGGACEPRGGEPSSGPVRRELKQFLGWLKKHAYCSNLSFRLYDQWRAWMQKSHKTRNQDEGILPSGRRGTARGPAR
notes: Cytokine receptor-like factor 1, human, full-length cDNA cloned into an AAV vector; released into the medium by BMSCs; Full-length cDNA was cloned into the backbone pENN.AAV.CB7.Cl.eGFP.WPRE.rBG (Addgene 105542 is the vector, not this construct); Bands: ~110 kDa non-reduced, 55 kDa reduced; also called CRLF1dim; CRLF1mon; source: human BMSCs transduced with AAV containing CRLF1, in conditioned …
stoichiometry N: 2
